test: soluble on expression in E. coli; label from the status in PepcDB or PDB records

| Sequence | soluble on expression in E. coli |
| --- | --- |
| MVAEVSPKLAASPMKKPFGFRGKMGKWCCCCFPCCRGSGKNNMGAWRDHDDSAFTEPRYHVRREDLGKLHRAAWWGEVPRADLIVMLRGPGINKRDKKKRTALHLACANGNSEVVSLLLDRQCQLHVFDSKKRTALIKAVQCQEDECALMLLQHGTDPNLPDMYGNTALHYAVYNEDKLMAKTLLLYGADIESKNKGGLTPLLLAVHGQKQRMVKFLIKKKANLNALDRFGRICQLLSDYKENQMPNNSSGNSNPEQDLKLTSEEEPQRLKGSENSQHEKVTQEPDINKDCDREVEEEMQKHGSNNVGLSENLTDGAAAGNGDGGLVPQRKSRKHENQQFPNTEIEEYHRPEKKSNEKNKVKSQIHSVDNLDDITWPSEIASEDYDLLFSNYETFTLLIEQLKMDFNDSASLSKIQDAVISEEHLLELKNSHYEQLTVEVEQMENMVHVLQK | not soluble |
| MTMRTYKNPYPDSEDAVEIRFDHCREDIAKAAQEYWREMTEAELDDLQEEIMRALAVSEWQNIWLTSAAFITVLAYHFHD | not soluble |
| MQLVVARIGRAHGIKGEVTVEVRTDEPELRLGPGAVLATDPASVGPLTIETGRVHSGRLLLRFEGVRDRNGAEALRNTLLIAEVDPDEVPEDPDEYYDHQLMDLDVVTKDGTEVGRITEISHLPSQDLFVVERSDGSEVYIPFVEEIVVEIDLEEQRAVIDPPPGLIDDRAEVDSSDTEAATEADALEHHHHHH | soluble |
| QAMLIGEIMDLNLKNFLEDREEIIRDAKRKDEKSFKDFKKIVEEIKERENKDKIVCDFTEYNPLHKGHKYALEKGKEHGIFISVLPGPLERSGRGIPYFLNRYIRAEMAIRAGADIVVEGPPMGIMGSGQYMRCLIKMFYSLGAEIIPRGYIPEKTMEKVIDCINKGYHIQVKPYKIICIETGEILGEKLNIDNYVIASMSQMIYKLNREGLKFNPKFVFVKRLEGISGTKIREAIFSGKFEDIKNMLPKTTLSILKELYDNGKLNELILKRFEDRILETANEYDLYEYLPSNVAEILEKKRPFNNIEEIKNSLPYGFSRHFRERILSKLEARIPNETLSKYINNYPAKIKILAVKL | soluble |
| MAHHHHHHMLLQFNWDRLDVTAAEAICALLNAKLEEELLLRRAANQSVNASGGQETASADAACGVESLRVTNIEWGNVPPFIEVVELDDAVEFASSTPLSFEAPLGQQDFGGTISSGTCGGGATTPFFLRPSPASSVTMMDGISETDSGIVGNHGGMPTPSVPPASGIRPGNGQSPINSSSAPVKDAFAAYFGPKGLYVCLHVTYGGPMRVSVASVLRHDVPLGPIAIPVRMPLQLHFSKMDMDFHLCINLHRNTCRVWMEPGKLFTSPLNRMNVMAVFGERRPSSQHMAEFPTSGQNAGDDLDTSDAWTHVGSSRIGSDDAEDMVFIDESIISQFVLKEVRAILQEKIIYPHSVVVPLSL | not soluble |
| MSLAEVAEVSEQDFGEILAQTRQFVRTAVVPREQEILDGDRVPDDLRDQARKMGLFGYAIPQQWGGLGLNLMQDVELAMELGYTSLALRSMFGTNNGIAGQVLVGFGTEAQKARWLEPMAAGDVVASFALTEPGAGSNPAGLRTKAVADGDNWVISGQKRFITNAPVADLFVVFARTRPADDQGPGIAVFLVPADAAGVQVGAKDAKMGQEGAWTADVSFDDVRVGGDALIGGSENIGYRAAMTSLARGRVHIAALAVGAAQRALDESVSYAATATQGGTPIGNFQLVQAMLADQQTEVLAGRALVREAARLWVTGEDRRVAPSAAKLYCTEMAGRVADLAVQVHGGSGYMRGVPVERIYRDVRLLRLYEGTSEIQRLIIGSNLVKAAQREGHHHHHH | soluble |
| MAVGKNKGLSKGGKKGGKKKVVDPFSRKDWYDVKAPNMFQTRQIGKTLVNRTQGQRIASDYLKGRVFEVSLADLQKDIDPERSFRKFRLIAEDVQDRNVLCNFHGMDLTTDKYRSMVKKWQTLIEAIVEAKTVDGYLLRVFCIGFTAKDQQSQRKTCYAQQSQVRKIRARMTDIITNEVSGADLKQLVNKLALDSIAKDIEKSCQRIYPLHDVYIRKVKVLKKPRFDVSKLLELHGDGGGKSVEAVVSSEGAVIDRPEGYEPPVQEAVLEHHHHHH | soluble |
| MGSDKIHHHHHHMNTDLTLVIMAAGLGSRFGGDKQLASLGPSGEPMLVLSILSAIRSGFQRAVLVIRPELEAELTGILTQFLPANFEYHFCYQSLSDLPQDAKLADLSHRLKPWGTAHALWCARDWVKGPMAVINADDFYGDSAFASLAKGLTARPNDWMMVAYPIELTLSEHGGVNRGLCQVAQGQLRSVAEWLNIQAQDDGFVGEGPNGLAKLPLQSLVSMTCWGFSPSIFNVIKQQLTAFIEQQGQLPKSECYLPAVVQAAIEQGVPVYVDVASEPWLGVTYPQDTVWVKQKLMELLGDKTH | not soluble |
| MAHHHHHHMRGQSSFSSIGEKPNALRDANDVTPMDTRHLHATCAAEEITHNTGANKKRQRGCRTPLMNAGDGSSIHSATSHQSSQAAHRTADAPSDISNRPTQSSGRAMELIRQRRSTVVRRITDIPALGQSHKEGERCGLINVGAVNVEAENAPSEQFSTFFSFFFFCRTHEQPMNEESCAALLVGILEVAPSTRPRHTRMLRSTLEMNRTPLEMVILGLQKIASRWETKQARPLTKEWLNQPIRSRTDWKERVVFRLVWITASRLFEIVALTPKNVTLEPNGTLILYWPVAPKTARADPHCASRFVGMRGQDAFDIIKLCMTL | not soluble |
| AMASASLCFLETENISKMAQILVDRCVEITNASFGFLYELVFGGDARILAVSSTAAVPAGGLCAQVKGHIEREGFFLVTPSDGLLFEPVKAGTTVLTNNPTTLDHLICRDSGNLGQINSFLGTPLKVGSRVVGMIGLTDRPDGFTDMERREIEAFAQTAALALHSARAEIEHKK | not soluble |
| MGSDKIHHHHHHMGKKTTIAIAHSDADLGKPAEYTRDQLDLVKAMIRQIADQTMGGMGNIVHKGDKVLIKINTVIPVPANAGFTTDPRMLEALIELVQEQNPGRIQIGERCAMGADTMEAMRVCGIVDVAERTGVELCPFEHAEFDMYKIDRPISFNEFPVPRPVRDADCYIGLPKMKVHVHTTFTGAMKLQFGNLPNYDWMVRCHRDDIYQKIVNLTRAANPKWFVMDSLYACQGNGPFSPYSEDLIKDFNTICGGPDPVAVDTVCEALMDWDYPGTNVPSTVLGAAEGLGTNRMNEIELAGAPLDKVKRRFKRQNTILQGQYPNVNLVMGSTCEAGCKAIVRIQLDQLQADGTLERLEKPITIFTGLQFEEHINKVEGDVLIVGDCAKGMLEKFPDARYWGDCEEYPNCTPIWANRPDVGIANYVRQLTAVREGNAR | not soluble |
| MDCDIASYHVDSFDFLVSKGCQFAAQAVPAEKFRLKNGDAVTMKFTSAQLHKPTLDTGAKLTSDTLPLLPAECRQRGLTYAGNLKVGIDVHVNGSRLDIIEIILGKVPIMLRSEGCHLRGMSRKELVVAGEEPIEKGGYFIVNGSEKVIRLLIANRRNFPIAIIRKTFKEKGKLFSEFGVMMRSVKENHTAVMMTLHYLDTGTMQLALQFRREIFYVPLMYIVKALTDKNDAVISAGFKRGRNQDQFYSSCILNMLAQCQEEEILNQEAAIRAIGSRFRVAVSDRVAPWEDDLEAGRFIIRECVLIHLDSDEEKFHTLAYMTQKLIALVKGECAPETPDNPQFQEASVSGHILLLILRERMENIIGMVRRKLEYMSSRKDFILTSAAILKALGNHTGGEITRGMAYFLATGNLVTRVGLALQQESGFSVIAERINQLRFVSHFRAIHRGAFFMEMRTTDVRKLRPEAWGFICPVHTPDGAPCGLLNHVTASCRIVTDLSDNSNVPSLLAELGMYTHKTVALAPPGEELYPVLMNGRFLGYVPITKAASIERYLRCAKVAKDARIPYTSEIALVRRSTDIKNIQTQYPGIYILSDAGRLIRPVRNLAMDAVEHIGTFEQVYLSVVLDPEEAEPGVTMHQELHPSCLFSFAGNLIPFPDHNQSPRNVYQCQMGKQTMGTAVHAWHSRADNKMYRLQFPQQPMLKLEAYEKYEMDEYPLGTNACVAVISYTGYDMEDAMTINKASYQRGFAHGTVIKVERINLVTERERKTIFYRNPREEIKTVGPDGLPIPGRRYFLDEVYYVTFNMETGDFRTHKFHYAEPAYCGLVRIVEQGEGDSGAKHALIQWRIERNPIIGDKFASRHGQKGINSFLWPVESLPFSETGMVPDIIFNPHGFPSRMTIGMMIESMAGKAAATHGENYDASPFVFNEDNTAINHFGELLTKAGYNYYGNETFYSGVDGRQMEMQIFFGIVYYQRLRHMIADKFQVRATGPIDPITHQPVKGRKKGGGIRFGEMERDAIIAHGTSFVLQDRLLNCSDRDVAYACRRCGSLLSVLMSSRAGSHLLKKKRKDDEPLDYTETQRCRTCDKDDQVFLLQVPRVFRYLTAELAAMNVKIKLGIEHPSKVTGS | not soluble |
| GAKSIYEFQVNAADGKPYDLSQHKGHPLLIYNVASRCGYTKGGYETATTLYNKYKGQGFTVLAFPCNQFAGQEPGTALEVKEFACTRFKADFPIMAKIDVNGSKAHPLYEFMKATIPGLFGTKAIKWNFTSFLIDRHGVPVERFSPGASVEDIEKKLLPLLGGARI | soluble |
| MVVSAMAGLEENGSEPTAPRADPQGDPFLRTRFALPTRPGTFLRRERLVRHLDHALRTPLTMVNGAAGAGKTLLVADWAAGQDRSVAWLTTDAADQGCGTFWAYLLQALRACDVPLPAEVGFPADANRVDHTLLARLAADLSVRDRPVVVVLDEYDRVTDPEIADQLEFV | not soluble |
| AIADIEVDIIEFKVPLENNKTIFIWDIQPTFTEAYIYESLWSVYSAFGDLYLLKVCPNATVAEPGFYALVKFYSSAQASKAQRATDKQCLFQSSPLKVRLSTKQNLSFYSSKPLCLSKCHNLANHYLGFGGWTTRIVTLKDLSNCVDAGCQEETGDQGVLLKYGCIMELSFPHHGMSCQGVGVAEEVLDSDQDPEEKLRKRGALMKRAKDKAMEVAFEKVLLLILGNGKVAIEIKIDPDEIVPEENSERVIKVNDISWTHIESADSNAEEDFLWDLTEDLPY | soluble |
| MGSDKIHHHHHHLTEFTLMVAPNGARRGKADHPALPMTAPELAETALACHRLGAQALHLHVRDAEGVHSLDAGRYREAMSLVSEAVPTMGIQITTESAGLFDVGAQLACLEALRPAAASVSVREMARDKSLAARAYALCSEAGTQVQHILYTPECVEQLEAWYADGTVPDEMRDVILVLGQYATGQPARPAMLPPFLALIAPLDLRWSLCAFGPEEHACLLAAVEAGGQVRIGFENSLGPMGGPAWADNAASVEAFLNLTVARGHTLDPHQNMPGANLRELT | not soluble |
| MGSDKIHHHHHHMEIHSSAAAEVFPVCRSLLGKLPAHSHNRSVAPTVCDYYPQIMKTYNSKMTTQHSSDIRNSQNISASFVTPHDAPVTSRKYVPKFNSNNHRIKTAAAFEKGSDIYHAVRPNYPNSVIELLNLSPNSRVLDIGCGTGKLTEQIAQQTSSVYALDPSKDMLDSFRSTLDIPSWQATAEQTAVSDSRFSTLTCAQTWHWVEPLAASAELDRISTDDAQLLLVWNTLDVSVPWVHRLSRIMHSGDTLAEGFIPHVAQPWELVSVLRGKHAQELYPDQIHTLAHTRSYWLRASEKTREKLTHNLSWYLTDHLELPSTSLVEIPYRFDAFLYKKALVKTQ | not soluble |
| NGLLYKRWVKQRAEDVEKWSGGRLGYVHIQSMGDGSFRTVYSDILGKYNNCDGIVIDTRFNGGGRLHEDIEILFSGQKYFTQVVRGREACDMPSRRWNKPSIMLQCEANYSNAHGTPWVYKHQNIGKLVGMPVPGTMTSVSWETLQDPSLVFGIPIIGYRLPDGSYLENTQLEPDIKVANSPETIVKGEDTQLKMAVDELLKEIDSRKK | not soluble |
| MVGKRNLPVISRNFDLSPGVLRFSASRLRLKKGEKKPKFTKDTSAKLPKLQRNGTKFALGHSKTVTLRKTLTPGTVLIVLAGRHKGKRVVFLKQLPQSGLLLVTGPHKINGFPLRRIGQAFVIATSLKVNVSGVKIPEHINDEYFKRKSTAQKTGKNIFASGKTEYTVSEQRKKDIKTVDAPILAAIKKHPEHKFLFGYLGTRFSLGKNQYPHKMQF | not soluble |
